B1: B156 (antibody, human IgG4, kappa)
heavy: not shown
light: DIQLTQSPSSLSASIGDRVTITCRASQGISSFLAWYQQKPGKAPQLLIYAASTLQSGVPSRFSGSGSGTEFTLTISSLQPEDFATYYCQQFKIYPLTFGGGTKVEVKRTVAAPSVFIFPPSDEQLKSGTASVVCLLNNFYPREAKVQWKVDNALQSGNSQESVTEQDSKDSTYSLSSTLTLSKADYEKHKVYACEVTHQGLSSPVTKSFNRGEC
notes: also called P59397
B2: B156 (IgG4SP) (antibody)
heavy: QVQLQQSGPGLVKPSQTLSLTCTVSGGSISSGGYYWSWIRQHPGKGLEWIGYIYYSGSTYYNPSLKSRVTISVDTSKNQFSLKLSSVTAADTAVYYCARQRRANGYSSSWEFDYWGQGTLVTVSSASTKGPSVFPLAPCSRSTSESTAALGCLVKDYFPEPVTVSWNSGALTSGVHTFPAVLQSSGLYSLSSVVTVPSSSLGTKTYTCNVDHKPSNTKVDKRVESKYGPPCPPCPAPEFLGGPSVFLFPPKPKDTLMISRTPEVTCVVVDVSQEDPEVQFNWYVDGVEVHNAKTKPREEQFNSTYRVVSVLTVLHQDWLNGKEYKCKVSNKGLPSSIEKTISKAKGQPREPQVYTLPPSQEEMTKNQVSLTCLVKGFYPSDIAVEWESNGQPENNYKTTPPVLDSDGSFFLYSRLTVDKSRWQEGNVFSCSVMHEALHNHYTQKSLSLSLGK
light: B1 light
notes: IgG4SP (S228P in the hinge, already in the heavy chain entry); also called B156SP; P62304
B3: B90 (antibody, human IgG4, kappa)
heavy: not shown
light: DIQMTQSPSILSASVGDRVTLTCRASQSISSWLAWYQQTPGKAPRVLIYEASTLEVGVPSRFSGSGSGTDFTLTISSLQPEDFGTYFCQQYHTDSRTFGQGTILEIKRTVAAPSVFIFPPSDEQLKSGTASVVCLLNNFYPREAKVQWKVDNALQSGNSQESVTEQDSKDSTYSLSSTLTLSKADYEKHKVYACEVTHQGLSSPVTKSFNRGEC
notes: also called P59391
B4: B90 (IgG4SP) (antibody)
heavy: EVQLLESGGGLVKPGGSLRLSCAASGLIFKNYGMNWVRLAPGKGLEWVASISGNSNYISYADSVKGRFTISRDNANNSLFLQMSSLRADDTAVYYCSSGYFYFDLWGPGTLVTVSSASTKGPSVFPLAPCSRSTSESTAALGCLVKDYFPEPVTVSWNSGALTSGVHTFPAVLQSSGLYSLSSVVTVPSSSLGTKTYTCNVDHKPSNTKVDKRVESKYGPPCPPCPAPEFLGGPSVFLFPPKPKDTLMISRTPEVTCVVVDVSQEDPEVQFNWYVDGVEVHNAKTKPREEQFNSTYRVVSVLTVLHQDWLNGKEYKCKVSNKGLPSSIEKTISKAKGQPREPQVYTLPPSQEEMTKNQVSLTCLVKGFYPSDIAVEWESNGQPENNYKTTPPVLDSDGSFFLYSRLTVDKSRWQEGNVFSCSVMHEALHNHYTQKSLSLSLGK
light: B3 light
notes: IgG4SP (S228P in the hinge, already in the heavy chain entry); also called B90SP; P62303
B5: A53 (antibody, human IgG4, kappa, V domains shown)
VH: EVQLLESGPGLVKPSQTLSLTCTVSGGSISSGGYYWSWIRQHPGKGLEWIGYIYYSGSTYYNPSLKSRVTISVDTSKNQFSLKLSSVTAADTAVYYCARDSRGRSYGMDVWGQGTMVTVSS
VL: DIQMTQSPSSLSASVGDRVTITCRASQSINNYLNWYQEKPGKAPKLLIYAASSLQSGVPSRFSGSGSGTDFTLTISSLQPEDFATYYCQQSYSYPFTFGPGTKVDIKR
notes: also called P59374
B6: A156 (antibody, human IgG4, kappa)
heavy: not shown
light: AIQLTQSPSSLSASVGDRVTITCRASQGISSYLAWYQQKPGKAPKLLIFAASLLQRGVPSRFSGSGFGTDFTLTISGLQPEDFATYFCQQFNTYPITFGGGTKVEIKRTVAAPSVFIFPPSDEQLKSGTASVVCLLNNFYPREAKVQWKVDNALQSGNSQESVTEQDSKDSTYSLSSTLTLSKADYEKHKVYACEVTHQGLSSPVTKSFNRGEC
notes: also called P59378
B7: A156 (IgG4SP) (antibody)
heavy: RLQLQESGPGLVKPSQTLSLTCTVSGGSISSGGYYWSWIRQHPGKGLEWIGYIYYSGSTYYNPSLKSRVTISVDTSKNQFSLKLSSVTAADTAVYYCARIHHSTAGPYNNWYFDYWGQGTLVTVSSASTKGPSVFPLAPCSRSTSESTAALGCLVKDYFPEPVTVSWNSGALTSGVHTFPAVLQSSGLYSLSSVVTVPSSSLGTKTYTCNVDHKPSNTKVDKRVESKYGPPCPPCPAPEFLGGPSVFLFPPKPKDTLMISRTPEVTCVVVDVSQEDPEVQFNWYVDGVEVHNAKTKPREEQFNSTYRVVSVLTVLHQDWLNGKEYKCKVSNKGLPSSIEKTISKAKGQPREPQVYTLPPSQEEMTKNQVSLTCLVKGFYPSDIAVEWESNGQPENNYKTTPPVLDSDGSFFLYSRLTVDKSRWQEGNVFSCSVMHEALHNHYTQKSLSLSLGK
light: B6 light
notes: IgG4SP (S228P in the hinge, already in the heavy chain entry); also called A156SP; P62300
B8: A61 (antibody, human IgG4, kappa)
heavy: not shown
light: DIVMTQSPLSLPVTLGQPASISCRSSQSLVKSDGNTYLSWFQQRPGQSPRRLIYKVSNRDSGVPDRFSGSGSGTDFTLKISRVEAEDVGVYYCMQGTHWPPTFGPGTKVDIKRTVAAPSVFIFPPSDEQLKSGTASVVCLLNNFYPREAKVQWKVDNALQSGNSQESVTEQDSKDSTYSLSSTLTLSKADYEKHKVYACEVTHQGLSSPVTKSFNRGEC
notes: also called P59375
B9: A61 (IgG4SP) (antibody)
heavy: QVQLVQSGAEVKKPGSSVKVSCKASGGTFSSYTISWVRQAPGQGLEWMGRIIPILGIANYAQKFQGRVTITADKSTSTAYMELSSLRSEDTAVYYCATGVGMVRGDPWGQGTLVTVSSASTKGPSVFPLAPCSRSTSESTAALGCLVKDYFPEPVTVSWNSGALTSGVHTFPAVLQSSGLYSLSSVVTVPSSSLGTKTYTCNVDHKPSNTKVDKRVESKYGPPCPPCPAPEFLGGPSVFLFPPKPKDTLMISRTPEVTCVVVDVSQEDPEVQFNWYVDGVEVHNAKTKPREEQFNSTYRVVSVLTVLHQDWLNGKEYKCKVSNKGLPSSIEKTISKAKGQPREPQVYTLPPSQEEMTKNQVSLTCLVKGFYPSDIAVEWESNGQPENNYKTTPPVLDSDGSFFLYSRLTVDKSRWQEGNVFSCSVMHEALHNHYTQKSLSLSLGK
light: B8 light
notes: IgG4SP (S228P in the hinge, already in the heavy chain entry); also called A61SP; P62298
B10: A22 (antibody, human IgG4, kappa, V domains shown)
VH: EVQLVESGAEVKKPGSSVKVSCKASGGTFSSYAISWVRQAPGQGLEWMGGIIPIFGTANYAQKFQGRVTITADESTSTAYMELSSLRSEDTAVYYCAFTSGSYYYFDYWGQGTLVTVSS
VL: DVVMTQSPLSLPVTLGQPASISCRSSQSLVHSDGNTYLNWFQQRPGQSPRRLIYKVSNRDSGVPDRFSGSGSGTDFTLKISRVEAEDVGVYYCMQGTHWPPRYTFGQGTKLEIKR
notes: also called P59370
B11: B145 (antibody, human IgG4, kappa, V domains shown)
VH: QLQLQESGPGLVKPSQTLSLTCTVSGGSISSGGYYWSWIRQHPGKGLEWIGYIYYSGSTYYNPSLKSRVTISVDTSKNQFSLKLSSVTAADTAVYYCARGKRDGYNYYFDYWGQGTLVTVSS
VL: DIVMTQSPSSLSASVGDRVTITCQASQDISNYLNWYQQKPGKAPKLLIYDASSLESGVPSKFSGSRSGTDFTLTISSLQPEDSATYYCQQYRSYPITFGGGTKVEIKR
notes: also called P59396
B12: B44 (antibody, human IgG4, kappa, V domains shown)
VH: QVQLVQSGAEVKKPGASVKVSCKASGYTFTSYYMHWVRQAPGQGLEWMGIINPSGGSTSYAQKFQGRVTMTRDTSTSTVYMELSSLRSEDTAVYYCARGVSRRGAFDIWGQGTMVTVSS
VL: DVVMTQSPLSLPVTPGEPASISCRSSQSLLHRSGYNYLDWYVQKPGQSPQLLIYLGSIRAVGVPDRFSGSASGTDFTLRISRVEAEDVGIYYCMQALQTPPAFGGGTKVEIKR
notes: also called P59386

The first assay deals with T1, CC1H, major antigenic region of PLA2R (human, UniProt Q13018 21-367).
T1 construct: Secreted from CHO-S cells, purified on Ni column; also called CCIh
The assay is described as follows: indirect ELISA, CC1h coated at 2 ug/mL, anti-human IgG Fc HRP. On the procedure: (§1) 30 μL of CC1h (2 μg/mL, diluted with 1*PBS) was added to the reaction wells of the ELISA plate, and the plate was sealed and incubated at 4° C. overnight. The plate was washed with PBST for 3 times, and the liquid in the wells was discarded. 5% PBSM was added to block the ELISA plate at room temperature for 2 hours. The plate was washed with PBST for 3 times by adding 30 μL of Abs (diluted with 1*PBS) to each well of the ELISA plate, and the plate was incubated at room temperature for 60 min. The plate was washed with PBST for 3 times, 30 μL of anti-human IgG Fc HRP (diluted with 1% PBSM at a ratio of 1:8000) was added to each well, and incubated at room temperature for 60 min. TMB was added and the reaction was stopped with 2M blocking solution and the OD value was detected at 450 nm. Recombinant Ipilimumab (Sanyou Biopharmaceuticals Co., Ltd.) was used as a negative control. The test results were illustrated in Table 2 as well as FIG. 4 and FIG. 5.
A general note: An ELISA detects its analyte on a solid surface through an enzyme-linked reagent.
With B1, a half-maximal effect (EC50) was put at 10.5 ng/mL.

Molecule B2 displayed an EC50 of 8.12 ng/mL.

For B3, a half-maximal effect (EC50) was put at 2.96 ng/mL.

In turn, B4 returned an EC50 of 19.5 ng/mL.

Molecule B5 returned an EC50 of 4.03 ng/mL.

The molecule B6 gave an EC50 of 6.9 ng/mL.

The molecule B7 returned an EC50 of 14.7 ng/mL.

With B8, the response was half-maximal at 4.6 ng/mL (EC50).

B9: the EC50 worked out at 10.3 ng/mL.

Another assay concerns the target T2, CC1H-Biotin (human, UniProt Q13018 21-367, biotin by EZ-Link Sulfo-NHS-LC-Biotin, 1.80 mol Biotin/mol protein; sites not given).
T2 construct: also called biotin-labeled CC1H
The experiment in a line: BLI (Octet N1), CC1H-Biotin on SA sensor, antibody 76.6-8.5 nM. On the procedure:
Sartorius Octet® N1 molecular interaction instrument was used, the SA sensor (Sartorius, Octet® Streptavidin (SA) Biosensor, 18-5019) was selected.
The sensor was immersed in a PBSTB buffer (0.02% Tween-20 and 0.1% BSA were added in the PBS buffer) to be pre-wetted for 10 min or longer, and loaded onto the molecular interaction instrument.
The association constant (Ka), dissociation constant (Kd), and affinity constant (KD) were calculated and illustrated in Table 5 for details.
A general note: Biolayer interferometry detects binding as a change in optical thickness at a sensor tip.
In the case of B1, the equilibrium dissociation constant (Kd) was 0.242 nM, the koff stood at 0.000125 s⁻¹ and the on-rate constant (kon) stood at 516000 M⁻¹ s⁻¹.

B2 came in with a Kd of less than 0.001 nM, a koff of less than 1e-07 s⁻¹ and a kon of 654000 M⁻¹ s⁻¹.

On to B3, for which binding was put at a Kd of 0.841 nM, the koff was found to be 0.000512 s⁻¹ and the kon was 608000 M⁻¹ s⁻¹.

The molecule B4 had a Kd of 6.59 nM, a koff of 0.000639 s⁻¹ and a kon of 97000 M⁻¹ s⁻¹.

As for B6, the Kd came out at 0.158 nM, the koff was found to be 0.000102 s⁻¹ and the kon was determined as 644000 M⁻¹ s⁻¹.

B7 displayed a Kd of 0.456 nM, a koff of 0.000169 s⁻¹ and a kon of 371000 M⁻¹ s⁻¹.

In turn, B8 showed a Kd of 0.0178 nM, a dissociation rate constant (koff) of 1.89e-05 s⁻¹ and an on-rate (kon) of 1.06e+06 M⁻¹ s⁻¹.

B9: the Kd stood at 0.126 nM, the koff was determined as 8.17e-05 s⁻¹ and the kon amounted to 648000 M⁻¹ s⁻¹.

In the next assay the target is T1, CC1H, major antigenic region of PLA2R. The assay is described as follows: indirect ELISA, CC1h coated at 2 µg/mL, anti-human IgG Fc HRP, ΔOD450. On the procedure: The human anti-human PLA2R antibody after phage screening and expression in Example 2 was measured in terms of the ability of binding to CC1h using the indirect ELISA method.
as §1
In the case of B10, the binding result was “no binding”.

Turning to B11, the binding result was “no binding”.

B12: the binding result was “no binding”.

One may read the EC50 as the concentration at which the effect is half-maximal. Read a high EC50 as lower potency in that assay. For orientation: Kd means the equilibrium constant for the complex coming apart. Higher therefore signals weaker binding. As usually defined, the koff is the first-order rate constant of dissociation. By kon is commonly meant a measure of how fast the partners come together. The low end stands for slow association, the high end for fast association.

(Values after US20250340652A1 (CHENGDU DI AO PHARMACEUTICAL GROUP, published 2025).)
